From patent US6030783, “Photo-potentiation of cisplatin chemotherapy” (Massachusetts Institute of Technology)

Assays:
[1] = tested on: HMG1; details: [Pt(en)Cl2]; photo-cross-linking efficiency about half that of cis-DDP probe
[2] = molecular target: T1, HMG domain B (of HMG1) (UniProt P63159 P63159:86-165); assay: EMSA; 10-40 equiv protein; about 50% shifted at 1 uM DNA with 1.5 equiv (Example 5); also photo-cross-links at 302 nm via Lys-6; 10 mM Tris pH 7.5, 10 mM MgCl2, 50 mM KCl; details: tags: expressed from pHB1 in E. coli BL21(DE3); label: 5'-32P
T1 sequence (P63159 86-165, one chain of several): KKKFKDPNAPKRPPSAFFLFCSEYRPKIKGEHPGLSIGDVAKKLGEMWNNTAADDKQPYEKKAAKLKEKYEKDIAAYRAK
Description: Reaction mixtures (10 µL total volume) were prepared containing 10 mM Tris-HCl, pH 7.5, 4% (v/v) glycerol, 10 mM MgCl2, 50 mM KCl, 1 mM EDTA and 0.05% (v/v) Nonidet P-40. HMG domain B [expressed and purified from pHB1/*Escherichia coli* BL21 (DE3) (Chow et al. (1995) *Biochemistry* 33: 15124–30)] was added, and the solution was incubated for 30 min on ice to allow protein-DNA binding. For binding of the 123- and 82-bp probes to HMG1, 0.2 µg of BSA/mL, 2 µg of competitor chicken erythrocyte DNA, and 300 ng of HMG1 were included in the reaction mixtures. To induce photo-cross-linking of the protein—DNA complexes, the reaction mixtures contained in open microcentrifuge tubes were placed on ice and irradiated from about for 1–2 h at a distance of 4 cm from a transilluminator (Ultra-Violet Products, TM-15) equipped with one of several different lamps, with primary spectral outputs of 254, 302, or 365 nm. The light intensity, 2.6–2.9 J m^-2 s^-1, was measured with a UVX radiometer (Ultra-Violet Products). Following irradiation, the reaction mixtures were combined with 5 µL of gel-loading solution [10 M urea, 1.5 mM EDTA, 0.05% (w/v) bromophenol blue and xylene cyanol]. The DNA was denatured by heating at 90° C. for 4 min and then analyzed by denaturing PAGE. The denaturing 8% polyacrylamide gel was run to determine photo-crosslinking of HMG1 to globally platinated 123-bp probes. […]

[3] = molecular target: T1, HMG domain B (of HMG1); assay: EMSA; 10-40 equiv protein; details: tags: expressed from pHB1 in E. coli BL21(DE3); label: 5'-32P

Q: With [Pt(en)Cl2]-modified DNA as the molecule, how does the binding signal (fraction of cis-DDP probe) [1] read?
A: 0.5

B1: 15Pt/15B cisplatin-modified 15-bp duplex (dsDNA)
DNA 1: CCTCTCTGGTTCTTC
DNA 2: GAAGAACCAGAGAGG
modifications: single cis-[Pt(NH3)2{d(GpG)-N7(1),-N7(2)}] intrastrand cross-link at GG
Q: Does B1 bind [2]?
A: binds

B2: 15Pt single strand (ssDNA)
DNA: CCTCTCTGGTTCTTC
modifications: single cis-[Pt(NH3)2{d(GpG)-N7(1),-N7(2)}] intrastrand cross-link at GG
Q: Does B2 bind [3]?
A: no binding
